Source: US9453061B2, “Method and compositions for treatment of calcineurin-related diseases” (BROWN UNIVERSITY, priority 2014, dated 2016)

B1: RNA-binding domain (amino acid positions 1-88): structured N-terminal RNA-binding domain of RCAN1, amino acid positions 1-88 (protein, UniProt P53805 1-88, looked up, fragment)
chain: MEDGVAGPQLGAAAEAAEAAEARARPGVTLRPFAPLSGAAEADEGGGDWSFIDCEMEEVDLQDLPSATIACHLDPRVFVDGLCRAKFE

Target: T1, calcineurin (Homo sapiens, UniProt Q08209)
T1 construct: made in house
T1 sequence (Q08209 1-391 limits assumed): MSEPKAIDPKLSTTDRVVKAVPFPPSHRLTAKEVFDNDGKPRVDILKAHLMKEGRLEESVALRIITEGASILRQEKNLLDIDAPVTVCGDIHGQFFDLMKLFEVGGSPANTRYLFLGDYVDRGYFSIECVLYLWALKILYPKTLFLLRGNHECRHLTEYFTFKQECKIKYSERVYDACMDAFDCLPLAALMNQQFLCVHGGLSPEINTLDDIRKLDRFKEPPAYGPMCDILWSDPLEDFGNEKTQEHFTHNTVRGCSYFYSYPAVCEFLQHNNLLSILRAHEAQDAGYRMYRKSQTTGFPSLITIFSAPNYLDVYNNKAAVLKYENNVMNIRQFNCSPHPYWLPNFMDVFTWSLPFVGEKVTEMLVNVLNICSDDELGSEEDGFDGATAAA
T1 sequence (P63098 whole entry partner): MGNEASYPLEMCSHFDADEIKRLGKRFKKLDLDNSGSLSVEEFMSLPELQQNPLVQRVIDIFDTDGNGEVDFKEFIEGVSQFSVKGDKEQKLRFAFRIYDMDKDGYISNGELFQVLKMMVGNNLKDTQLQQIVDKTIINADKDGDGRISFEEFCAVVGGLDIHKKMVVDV
Assay: Isothermal titration calorimetry (ITC) of RCAN1 constructs with calcineurin
Assay type: binding
Experimental: Only RCAN1^89-197 (SEQ ID NO: 2) was labeled with NMR active nuclei; calcineurin was unlabeled. […] See, FIG. 2.
Affinity of each RCAN1 construct for calcineurin was measured using ITC to determine the individual contribution of each motif to binding. […] See, FIG. 2A.
The CNB subunit was analyzed to determine whether the subunit influences binding by generating a construct of only the calcineurin catalytic domain, CNAcat containing residues 1-348, and identical to a previously characterized CNA construct. See, Takeuchi et al., Structure 15, 587-97 (2007).
To determine how the TxxP (SEQ ID NO: 11) motif binds and engages calcineurin, the residues within and surrounding the TxxP (SEQ ID NO: 11) motif were mutated (i.e. K182A/E, Q185A, E190R/A, Y191A) and ITC was used to quantify which residues are most critical for calcineurin binding. ITC was used to determine whether the TxxP (SEQ ID NO: 11) motif binds only the CNA catalytic domain, or also requires CNB for binding using RCAN1^128-197, without requiring the LxVP (SEQ ID NO: 10) motif. Calcineurin active site residues were mutated as follows: R122A/D, H151A, D118A, R254A/D; and the change in affinity was quantified.

Molecule | Kd | binding to calcineurin (in words)
RCAN1^128-192: within SEQ ID NO: 2; includes RCAN1^128-164 and the TxxP site | ~300 nM | 
B1 |  | does not interact directly
